Source: IntAct's records for PubMed 17157788

B1: Protein AATF (Homo sapiens), Q9NY61 (parent)
chain: MAGPQPLALQLEQLLNPRPSEADPEADPEEATAARVIDRFDEGEDGEGDFLVVGSIRKLASASLLDTDKRYCGKTTSRKAWNEDHWEQTLPGSSDEEISDEEGSGDEDSEGLGLEEYDEDDLGAAEEQECGDHRESKKSRSHSAKTPGFSVQSISDFEKFTKGMDDLGSSEEEEDEESGMEEGDDAEDSQGESEEDRAGDRNSEDDGVVMTFSSVKVSEEVEKGRAVKNQIALWDQLLEGRIKLQKALLTTNQLPQPDVFPLFKDKGGPEFSSALKNSHKALKALLRSLVGLQEELLFQYPDTRYLVDGTKPNAGSEEISSEDDELVEEKKQQRRRVPAKRKLEMEDYPSFMAKRFADFTVYRNRTLQKWHDKTKLASGKLGKGFGAFERSILTQIDHILMDKERLLRRTQTKRSVYRVLGKPEPAAQPVPESLPGEPEILPQAPANAHLKDLDEEIFDDDDFYHQLLRELIERKTSSLDPNDQVAMGRQWLAIQKLRSKIHKKVDRKASKGRKLRFHVLSKLLSFMAPIDHTTMNDDARTELYRSLFGQLHPPDEGHGD

Variants of: B1
Conditions: with chk2_human CHEK2, O96017
chk2_human CHEK2, O96017, sequence (O96017 whole entry): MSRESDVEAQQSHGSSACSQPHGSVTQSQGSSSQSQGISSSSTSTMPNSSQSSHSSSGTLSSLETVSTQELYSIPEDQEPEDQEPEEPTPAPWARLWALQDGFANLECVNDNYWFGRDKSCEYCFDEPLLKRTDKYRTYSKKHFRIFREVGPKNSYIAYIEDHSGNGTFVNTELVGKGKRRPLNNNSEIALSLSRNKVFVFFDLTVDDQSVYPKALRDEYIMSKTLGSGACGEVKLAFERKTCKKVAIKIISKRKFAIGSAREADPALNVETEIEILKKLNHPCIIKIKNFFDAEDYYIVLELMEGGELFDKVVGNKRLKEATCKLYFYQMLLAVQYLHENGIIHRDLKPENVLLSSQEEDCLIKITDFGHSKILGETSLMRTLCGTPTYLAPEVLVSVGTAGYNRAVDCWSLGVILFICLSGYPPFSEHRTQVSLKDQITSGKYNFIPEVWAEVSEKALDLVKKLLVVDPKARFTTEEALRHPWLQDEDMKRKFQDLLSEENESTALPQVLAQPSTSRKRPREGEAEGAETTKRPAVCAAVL

effect of a mutation on the interaction	Variant
disrupting interaction	MAGPQPLALQLEQLLNPRPSEADPEADPEEATAARVIDRFDEGEDGEGDFLVVGSIRKLASASLLDTDKRYCGKTTSRKAWNEDHWEQTLPGSSDEEISDEEGSGDEDSEGLGLEEYDEDDLGAAEEQECGDHRESKKSRSHAAKTPGFSVQSISDFEKFTKGMDDLGSSEEEEDEESGMEEGDDAEDSQGESEEDRAGDRNSEDDGVVMTFSSVKVSEEVEKGRAVKNQIALWDQLLEGRIKLQKALLTTNQLPQPDVFPLFKDKGGPEFSSALKNSHKALKALLRSLVGLQEELLFQYPDTRYLVDGTKPNAGSEEISSEDDELVEEKKQQRRRVPAKRKLEMEDYPSFMAKRFADFTVYRNRTLQKWHDKTKLASGKLGKGFGAFERSILTQIDHILMDKERLLRRTQTKRSVYRVLGKPEPAAQPVPESLPGEPEILPQAPANAHLKDLDEEIFDDDDFYHQLLRELIERKTASLDPNDQVAMGRQWLAIQKLRSKIHKKVDRKAAKGRKLRFHVLSKLLSFMAPIDHTTMNDDARTELYRSLFGQLHPPDEGHGD [S143A;S477A;S510A]
decreasing interaction	MAGPQPLALQLEQLLNPRPSEADPEADPEEATAARVIDRFDEGEDGEGDFLVVGSIRKLASASLLDTDKRYCGKTTSRKAWNEDHWEQTLPGSSDEEISDEEGSGDEDSEGLGLEEYDEDDLGAAEEQECGDHRESKKSRAHSAKTPGFSVQSISDFEKFTKGMDDLGSSEEEEDEESGMEEGDDAEDSQGESEEDRAGDRNSEDDGVVMTFSSVKVSEEVEKGRAVKNQIALWDQLLEGRIKLQKALLTTNQLPQPDVFPLFKDKGGPEFSSALKNSHKALKALLRSLVGLQEELLFQYPDTRYLVDGTKPNAGSEEISSEDDELVEEKKQQRRRVPAKRKLEMEDYPSFMAKRFADFTVYRNRTLQKWHDKTKLASGKLGKGFGAFERSILTQIDHILMDKERLLRRTQTKRSVYRVLGKPEPAAQPVPESLPGEPEILPQAPANAHLKDLDEEIFDDDDFYHQLLRELIEAKTSSLDPNDQVAMGRQWLAIQKLRSKIHKKVDRKASKGRKLRFHVLSKLLSFMAPIDHTTMNDDARTELYRSLFGQLHPPDEGHGD [S141A;R474A]
decreasing interaction	MAGPQPLALQLEQLLNPRPSEADPEADPEEATAARVIDRFDEGEDGEGDFLVVGSIRKLASASLLDTDKRYCGKTTSRKAWNEDHWEQTLPGSSDEEISDEEGSGDEDSEGLGLEEYDEDDLGAAEEQECGDHRESKKSRAHSAKTPGFSVQSISDFEKFTKGMDDLGSSEEEEDEESGMEEGDDAEDSQGESEEDRAGDRNSEDDGVVMTFSSVKVSEEVEKGRAVKNQIALWDQLLEGRIKLQKALLTTNQLPQPDVFPLFKDKGGPEFSSALKNSHKALKALLRSLVGLQEELLFQYPDTRYLVDGTKPNAGSEEISSEDDELVEEKKQQRRRVPAKRKLEMEDYPSFMAKRFADFTVYRNRTLQKWHDKTKLASGKLGKGFGAFERSILTQIDHILMDKERLLRRTQTKRSVYRVLGKPEPAAQPVPESLPGEPEILPQAPANAHLKDLDEEIFDDDDFYHQLLRELIERKTSSLDPNDQVAMGRQWLAIQKLRSKIHKKVDRAASKGRKLRFHVLSKLLSFMAPIDHTTMNDDARTELYRSLFGQLHPPDEGHGD [S141A;K508A]

Variants of: B1
Conditions: with tf65_human RELA

effect of a mutation on the interaction	Variant
disrupting interaction	MAGPQPLALQLEQLLNPRPSEADPEADPEEATAARVIDRFDEGEDGEGDFLVVGSIRKLASASLLDTDKRYCGKTTSRKAWNEDHWEQTLPGSSDEEISDEEGSGDEDSEGLGLEEYDEDDLGAAEEQECGDHRESKKSRSHAAKTPGFSVQSISDFEKFTKGMDDLGSSEEEEDEESGMEEGDDAEDAQGESEEDRAGDRNSEDDGVVMTFSSVKVSEEVEKGRAVKNQIALWDQLLEGRIKLQKALLTTNQLPQPDVFPLFKDKGGPEFSSALKNSHKALKALLRSLVGLQEELLFQYPDTRYLVDGTKPNAGSEEISSEDDELVEEKKQQRRRVPAKRKLEMEDYPSFMAKRFADFTVYRNRTLQKWHDKTKLASGKLGKGFGAFERSILTQIDHILMDKERLLRRTQTKRSVYRVLGKPEPAAQPVPESLPGEPEILPQAPANAHLKDLDEEIFDDDDFYHQLLRELIERKTASLDPNDQVAMGRQWLAIQKLRSKIHKKVDRKAAKGRKLRFHVLSKLLSFMAPIDHTTMNDDARTELYRSLFGQLHPPDEGHGD [S143A;S189A;S477A;S510A]

Variants of: B1
Conditions: with atm_human ATM

effect of a mutation on the interaction	Variant
disrupting interaction	MAGPQPLALQLEQLLNPRPSEADPEADPEEATAARVIDRFDEGEDGEGDFLVVGSIRKLASASLLDTDKRYCGKTTSRKAWNEDHWEQTLPGSSDEEISDEEGSGDEDSEGLGLEEYDEDDLGAAEEQECGDHRESKKSRSHSAKTPGFSVQSISDFEKFTKGMDDLGSSEEEEDEESGMEEGDDAEDAQGESEEDRAGDRNSEDDGVVMTFSSVKVSEEVEKGRAVKNQIALWDQLLEGRIKLQKALLTTNQLPQPDVFPLFKDKGGPEFSSALKNSHKALKALLRSLVGLQEELLFQYPDTRYLVDGTKPNAGSEEISSEDDELVEEKKQQRRRVPAKRKLEMEDYPSFMAKRFADFTVYRNRTLQKWHDKTKLASGKLGKGFGAFERSILTQIDHILMDKERLLRRTQTKRSVYRVLGKPEPAAQPVPESLPGEPEILPQAPANAHLKDLDEEIFDDDDFYHQLLRELIERKTSSLDPNDQVAMGRQWLAIQKLRSKIHKKVDRKASKGRKLRFHVLSKLLSFMAPIDHTTMNDDARTELYRSLFGQLHPPDEGHGD [S189A]
